From patent US20110263454A1, “Methods of Identifying Functional Characteristics of Promoters, Transcription Modifying Proteins and Transcription Modulating Agents” (Salk Institute for Biological Studies, priority 2008, published 2011)

Experiments:
hTNFa promoter = test: NHR-promoter luciferase screen, hTNFa promoter; assay type: cell-based, human; conditions: for Luc. act., normalized to lacZ / Normalized Luc. act., normalized to control: TNFa promoter, HR component without or with ligand; for hTNFa promoter reporter activity: transcription factor +/- ligand, control = 1.00
Summary of the method: (§1)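 CV-1 cells were co-transfected with 50 ng NHR (homodimer or NHR/RXR heterodimer), 100 ng promoter-luciferase construct and 50 ng LacZ. Luciferase was normalized to LacZ and to a no-NHR/no-ligand control.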

hIRF7 promoter = test: NHR-promoter luciferase screen, hIRF7 promoter; assay type: cell-based, human; conditions: for Normalized Luc. act., normalized to control / Luc. act., normalized to lacZ: IRF7 promoter reporter; for Normalized Luc. act., normalized to control: HR without or with its ligand, relative to control; for Luc. act., normalized to lacZ: hormone receptor (HR) without or with its ligand; for hIRF7 promoter reporter activity: transcription factor +/- ligand, control = 1.00
Summary of the method: as §1

mUCP2 promoter = test: NHR-promoter luciferase screen, mUCP2 promoter; assay type: cell-based, mouse; conditions: for Luc. act., normalized to lacZ / Normalized Luc. act., normalized to control: mUCP2 promoter reporter, co-transfected HR, with or without its ligand; for Normalized Luc. act., normalized to control: relative to control; for luciferase activity normalized to lacZ activity and to a control, mUCP2: mUCP2 promoter-luciferase, CV-1 cells, NHR +/- ligand, control = 1.00
Summary of the method: as §1

hG6PD promoter = test: NHR-promoter luciferase screen, hG6PD promoter; assay type: cell-based, human; conditions: for Luc. act., normalized to lacZ / Normalized Luc. act., normalized to control: G6PD promoter reporter, co-transfected HR, without or with its ligand; for Normalized Luc. act., normalized to control: relative to control; for luciferase activity normalized to lacZ activity and to a control, hG6PD: hG6PD promoter-luciferase, CV-1 cells, NHR +/- ligand, control = 1.00
Summary of the method: as §1

hCYP3A4 promoter = test: NHR-promoter luciferase screen, hCYP3A4 promoter; assay type: cell-based, human; conditions: for Luc. act., normalized to lacZ / Normalized Luc. act., normalized to control: CYP3A4 promoter, HR/ligand component; for hCYP3A4 promoter reporter activity: transcription factor +/- ligand, control = 1.00
Summary of the method: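 Luciferase reporter read-out after co-expression in CV-1 cells of V5H6-tagged receptor (alone or with RXR), the promoter construct and LacZ. Values are luciferase/LacZ relative to a control lacking NHR or ligand; orphan receptors tested ligand-free.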

RevErba promoter = test: NHR-promoter luciferase screen, RevErba (RVRa) promoter; assay type: cell-based; design: key to mRevErba promoter reporter activity / Normalized Luc. act., normalized to control: luciferase activity normalized to lacZ and to control (no NHR/ligand); conditions: for Luc. act., normalized to lacZ / Normalized Luc. act., normalized to control / normalized Luc. act. on a logarithmic scale (column without head, Table 33) / negative reciprocal of normalized Luc. act. (fold repression; Table 33): RVRa promoter; for Luc. act., normalized to lacZ / Normalized Luc. act., normalized to control: HR component without or with ligand; for normalized Luc. act. on a logarithmic scale (column without head, Table 33): log10 of activity normalized to control; for mRevErba promoter reporter activity: transcription factor +/- ligand, control = 1.00; for negative reciprocal of normalized Luc. act. (fold repression; Table 33): given only where activity is below control
Summary of the method: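 Reporter readout: RevErbα promoter-driven luciferase, corrected for LacZ transfection efficiency and expressed relative to a no-receptor or no-ligand control. Receptors (V5H6-tagged, pcDNA3.1), alone or with RXR, plus any ligand, were expressed in CV-1 cells.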

Row | Molecule | Luc. act., normalized to lacZ (hTNFa promoter) | Normalized Luc. act., normalized to control (hTNFa promoter) | hTNFa promoter reporter activity (hTNFa promoter) | Normalized Luc. act., normalized to control (hIRF7 promoter) | Luc. act., normalized to lacZ (hIRF7 promoter) | hIRF7 promoter reporter activity (hIRF7 promoter) | Luc. act., normalized to lacZ (mUCP2 promoter) | Normalized Luc. act., normalized to control (mUCP2 promoter) | luciferase activity normalized to lacZ activity and to a control, mUCP2 (mUCP2 promoter) | Luc. act., normalized to lacZ (hG6PD promoter) | Normalized Luc. act., normalized to control (hG6PD promoter) | luciferase activity normalized to lacZ activity and to a control, hG6PD (hG6PD promoter) | Luc. act., normalized to lacZ (hCYP3A4 promoter) | Normalized Luc. act., normalized to control (hCYP3A4 promoter) | hCYP3A4 promoter reporter activity (hCYP3A4 promoter) | Luc. act., normalized to lacZ (RevErba promoter) | Normalized Luc. act., normalized to control (RevErba promoter) | normalized Luc. act. on a logarithmic scale (column without head, Table 33) (RevErba promoter) | mRevErba promoter reporter activity (RevErba promoter) | negative reciprocal of normalized Luc. act. (fold repression; Table 33) (RevErba promoter)
1 | TR2: Testicular Orphan Nuclear Receptor 2 (NR2C1), cDNA driver (protein, UniProt P13056 1-603, looked up) Nuclear receptor subfamily 2 …: MATIEEIAHQIIEQQMGEIVTEQQTGQKIQIVTALDHNTQGKQFILTNHDGSTPSKVILARQDSTPGKVFLTTPDAAGVNQLFFTTPDLSAQHLQLLTDNSPDQGPNKVFDLCVVCGDKASGRHYGAVTCEGCKGFFKRSIRKNLVYSCRGSKDCIINKHHRNRCQYCRLQRCIAFGMKQDSVQCERKPIEVSREKSSNCAASTEKIYIRKDLRSPLTATPTFVTDSESTRSTGLLDSGMFMNIHPSGVKTESAVLMTSDKAESCQGDLSTLANVVTSLANLGKTKDLSQNSNEMSMIESLSNDDTSLCEFQEMQTNGDVSRAFDTLAKALNPGESTACQSSVAGMEGSVHLITGDSSINYTEKEGPLLSDSHVAFRLTMPSPMPEYLNVHYIGESASRLLFLSMHWALSIPSFQALGQENSISLVKAYWNELFTLGLAQCWQVMNVATILATFVNCLHNSLQQDKMSTERRKLLMEHIFKLQEFCNSMVKLCIDGYEYAYLKAIVLFSPDHPSLENMEQIEKFQEKAYVEFQDYITKTYPDDTYRLSRLLLRLPALRLMNATITEELFFKGLIGNIRIDSVIPHILKMEPADYNSQIIGHSI | 1038.2 | 1.1 | 1.06 | 1.0 | 25.8 | 0.98 | 208.9 | 1.9 | 1.90 | 45.5 | 1.2 | 1.22 | 2.0 | 0.4 | 0.44 | 52.3 | 1.9 | 0.27 | 1.87 | 
2 | TR4: Testicular Orphan Nuclear Receptor 4 (NR2C2), cDNA driver (protein, UniProt P49116 1-596, looked up) Nuclear receptor subfamily 2 …: MTSPSPRIQIISTDSAVASPQRIQIVTDQQTGQKIQIVTAVDASGSPKQQFILTSPDGAGTGKVILASPETSSAKQLIFTTSDNLVPGRIQIVTDSASVERLLGKTDVQRPQVVEYCVVCGDKASGRHYGAVSCEGCKGFFKRSVRKNLTYSCRSNQDCIINKHHRNRCQFCRLKKCLEMGMKMESVQSERKPFDVQREKPSNCAASTEKIYIRKDLRSPLIATPTFVADKDGARQTGLLDPGMLVNIQQPLIREDGTVLLATDSKAETSQGALGTLANVVTSLANLSESLNNGDTSEIQPEDQSASEITRAFDTLAKALNTTDSSSSPSLADGIDTSGGGSIHVISRDQSTPIIEVEGPLLSDTHVTFKLTMPSPMPEYLNVHYICESASRLLFLSMHWARSIPAFQALGQDCNTSLVRACWNELFTLGLAQCAQVMSLSTILAAIVNHLQNSIQEDKLSGDRIKQVMEHIWKLQEFCNSMAKLDIDGYEYAYLKAIVLFSPDHPGLTSTSQIEKFQEKAQMELQDYVQKTYSEDTYRLARILVRLPALRLMSSNITEELFFTGLIGNVSIDSIIPYILKMETAEYNGQITGASL | 1189.6 | 1.2 | 1.21 | 1.9 | 48.8 | 1.85 | 199.0 | 1.8 | 1.81 | 66.2 | 1.8 | 1.77 | 7.7 | 1.7 | 1.74 | 26.5 | 0.9 | −0.02 | 0.95 | −1.054
3 | HNF4g: Hepatocyte Nuclear Factor γ (NR2A2), cDNA driver (protein, UniProt Q14541 1-408, looked up) Hepatocyte nuclear factor …: MNTTDNGVNCLCAICGDRATGKHYGASSCDGCKGFFRRSIRKSHVYSCRFSRQCVVDKDKRNQCRYCRLRKCFRAGMKKEAVQNERDRISTRRSTFDGSNIPSINTLAQAEVRSRQISVSSPGSSTDINVKKIASIGDVCESMKQQLLVLVEWAKYIPAFCELPLDDQVALLRAHAGEHLLLGATKRSMMYKDILLLGNNYVIHRNSCEVEISRVANRVLDELVRPFQEIQIDDNEYACLKAIVFFDPDAKGLSDPVKIKNMRFQVQIGLEDYINDRQYDSRGRFGELLLLLPTLQSITWQMIEQIQFVKLFGMVKIDNLLQEMLLGGASNDGSHLHHPMHPHLSQDPLTGQTILLGPMSTLVHADQISTPETPLPSPPQGSGQEQYKIAANQASVISHQHLSKQKQL | 859.3 | 0.9 | 0.87 | 1.2 | 31.7 | 1.20 | 114.8 | 1.0 | 1.04 | 42.1 | 1.1 | 1.13 | 1.8 | 0.4 | 0.40 | 28.15 | 1.0 | 0.00 | 1.01 | 
4 | Erb: Estrogen Receptor β (NR3A2, ERb), cDNA driver (protein, UniProt Q92731 1-530, looked up) Estrogen receptor beta: MDIKNSPSSLNSPSSYNCSQSILPLEHGSIYIPSSYVDSHHEYPAMTFYSPAVMNYSIPSNVTNLEGGPGRQTTSPNVLWPTPGHLSPLVVHRQLSHLYAEPQKSPWCEARSLEHTLPVNRETLKRKVSGNRCASPVTGPGSKRDAHFCAVCSDYASGYHYGVWSCEGCKAFFKRSIQGHNDYICPATNQCTIDKNRRKSCQACRLRKCYEVGMVKCGSRRERCGYRLVRRQRSADEQLHCAGKAKRSGGHAPRVRELLLDALSPEQLVLTLLEAEPPHVLISRPSAPFTEASMMMSLTKLADKELVHMISWAKKIPGFVELSLFDQVRLLESCWMEVLMMGLMWRSIDHPGKLIFAPDLVLDRDEGKCVEGILEIFDMLLATTSRFRELKLQHKEYLCVKAMILLNSSMYPLVTATQDADSSRKLAHLLNAVTDALVWVIAKSGISSQQQSMRLANLLMLLSHVRHASNKGMEHLLNMKCKNVVPVYDLLLEMLNAHVLRGCKSSITGSECSPAEDSKSKEGSQNPQSQ | 811.5 | 0.8 | 0.83 | 1.4 | 37.5 | 1.42 | 114.4 | 1.0 | 1.04 | 45.3 | 1.2 | 1.21 | 6.0 | 1.3 | 1.35 | 20.0 | 0.7 | −0.15 | 0.72 | −1.397
